Molecular target: T1, SARS-CoV-2 WHU01 Spike RBD, monomeric (SARS-CoV-2, UniProt P0DTC2)
T1 construct: not shown: Fc (human IgG1), C-terminal, cleaved
Assay: SPR
Details: both partners purified

B1: Dog ACE2-huFc (soluble dog ACE2 ectodomain, human IgG1 Fc fusion) (Fc fusion)
chain: QSTEDLVKTFLEKFNYEAEELSYQSSLASWNYNINITDENVQKMNNAGAKWSAFYEEQSKLAKTYPLEEIQDSTVKRQLRALQHSGSSVLSADKNQRLNTILNSMSTIYSTGKACNPSNPQECLLLEPGLDDIMENSKDYNERLWAWEGWRSEVGKQLRPLYEEYVALKNEMARANNYEDYGDYWRGDYEEEWENGYNYSRNQLIDDVEHTFTQIMPLYQHLHAYVRTKLMDTYPSYISPTGCLPAHLLGDMWGRFWTNLYPLTVPFGQKPNIDVTNAMVNQSWDARKIFKEAEKFFVSVGLPNMTQEFWENSMLTEPSDSRKVVCHPTAWDLGKGDFRIKMCTKVTMDDFLTAHHEMGHIQYDMAYAAQPFLLRNGANEGFHEAVGEIMSLSAATPNHLKNIGLLPPSFFEDSETEINFLLKQALTIVGTLPFTYMLEKWRWMVFKGEIPKDQWMKTWWEMKRNIVGVVEPVPHDETYCDPASLFHVANDYSFIRYYTRTIYQFQFQEALCQIAKHEGPLHKCDISNSSEAGQKLLEMLKLGKSKPWTYALEIVVGAKNMDVRPLLNYFEPLFTWLKEQNRNSFVGWNTDWSPYADQSIKVRISLKSALGEKAYEWNNNEMYLFRSSIAYAMRQYFSEVKNQTIPFVEDNVWVSDLKPRISFNFFVTSPGNVSDIIPRTEVEEAIRMYRSRINDVFRLDDNSLEFLGIQPTLGPPYEPPVTI
notes: source: 293F cells, transfected, purified from supernatant (Protein A Sepharose)
With B1 the Kd was 0.275 µM, the koff was 0.0176 s⁻¹ and the kon was 60000 M⁻¹ s⁻¹.

From article PMC10715038 (Microbiology Spectrum, 2023)
